Results reported in publication PMC6280682, “The Micronemal Plasmodium Proteins P36 and P52 Act in Concert to Establish the Replication-Permissive Compartment Within Infected Hepatocytes” (Frontiers in Cellular and Infection Microbiology, 2018).

Target: T1, Plasmodium yoelii P36 with a C-terminal mCherry tag (P36^mCherry) (Plasmodium yoelii, UniProt Q7RPW4 25-310)
T1 construct: P36, Plasmodium yoelii 17X, 6-cys s48/45 family, two s48/45 domains; predicted MW with mCherry 66 kDa; also called Py P36^mCherry; not shown: mCherry, C-terminal, kept
T1 sequence: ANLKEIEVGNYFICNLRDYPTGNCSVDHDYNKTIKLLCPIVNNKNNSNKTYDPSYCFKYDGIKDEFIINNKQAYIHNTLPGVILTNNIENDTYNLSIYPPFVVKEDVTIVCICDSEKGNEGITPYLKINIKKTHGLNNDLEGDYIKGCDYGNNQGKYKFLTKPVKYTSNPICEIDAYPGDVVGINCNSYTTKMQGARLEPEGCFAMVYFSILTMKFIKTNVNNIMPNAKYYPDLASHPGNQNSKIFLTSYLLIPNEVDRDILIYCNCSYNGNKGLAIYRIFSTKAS
Experiment: affinity purification with mass spectrometry; BS3-crosslinked P36^mCherry sporozoite lysate immunoprecipitated with RFP-Trap, S-Trap digest, LC-MS/MS (Q-Exactive HF), spectral counting
Conditions: partners not purified

B1: Plasmodium yoelii P52 (natural protein)
chain: NVPNPNTTIGHFEICEVNTSSGDAEECVLENEFGKMFLFICDIDYNEMSKNIVLPSECAKKTYIDHVNPNGTSPEVNTYDIFPDLIAANESQFRDKFYFYGTPYSSKDIDFICLCFSETKPDIKHVMKMSFKKMTKKIKGCDFGDNIPTKKDLTNGKALYENSSCHIYAYPGDVIGINCYKKDINNIYNNNLELQPNNCFHNVYYEDDILLSSKNLIPNSRVIPDPSNDVKLSKMHSYMSYIILPDEINENVKISCACKRDEYIGTMFLYVNTSKNILTSPDNNVEEIAPLNDHYISIGDMWDMGLHENPEQIQGIISNHANKKYYEHMKIYKSNKMDSSDDDESNETESSENESNERTHNGNRANKDANNSEKMTGNRRKKNNSINNTNYYSNYEDDNGINISTHDKYYEDQHFGNNGPLRKKRTFWQNMFGTS
notes: P52, Plasmodium yoelii 17X, 6-cys s48/45 family, two s48/45 domains; predicted MW 53 kDa; also called Py P52; source: endogenous, P. yoelii P36^mCherry salivary gland sporozoite lysate
- stoichiometry N: ~1
